This passage reports IC50, EC50 of cAMP formation (AlphaScreen cAMP assay) and ratio [(IC50/nM) high HSA]/[(IC50/nM) low HSA] results from patent US20120329711A1, “GLP-1 RECEPTOR AGONIST COMPOUNDS WITH A MODIFIED N-TERMINUS” (Nordisk A/S, priority 2009, published 2012).

Assay [1] addresses T1, human GLP-1 receptor (Homo sapiens, UniProt P43220). The experiment in a line: SPA displacement of [^125I]-GLP-1(7-36)NH2 from BHK membranes with the human GLP-1 receptor, 0.005% HSA (low albumin).
Assay [2] deals with T1, human GLP-1 receptor.
For assay [3], the target named is Human Serum Albumin (human) (UniProt P02768). Kind of assay: shift of the GLP-1 receptor IC50 (SPA displacement of ^125I-GLP-1) between 2.0% and 0.005% HSA, which the filing takes as an indication of albumin binding.
Assay [4] addresses T1, human GLP-1 receptor. The source holds these as a separate data set.
The target in assay [5] is T1, human GLP-1 receptor. The experiment in a line: SPA displacement of [^125I]-GLP-1(7-36)NH2 from BHK membranes with the human GLP-1 receptor, 2.0% HSA (high albumin).

Like-named read-outs stand apart in the source and are kept apart here.

Broadly, the IC50 is the concentration at which inhibition is half-maximal. Low readings indicate higher potency, high ones lower potency. “N^9-(5-oxo-5-phenylpentanoyl), N^ε26-[2-[2-[2-[[2-[2-[2-[[(4S)-4-carboxy-4-(17-carboxyheptadecanoylamino)butanoyl]amino]ethoxy]ethoxy]acetyl]amino]ethoxy]ethoxy]acetyl]-[Arg^34]-GLP-1-(9-37)-peptide”: the IC50 with human GLP-1 receptor [1] is greater than 0.04 µM. The substance also registered an EC50 of cAMP formation (AlphaScreen cAMP assay) in the assay with human GLP-1 receptor [2] greater than 0.008 µM. The ratio [(IC50/nM) high HSA]/[(IC50/nM) low HSA] in assay [3] was greater than 300.

For the substance “N^9-{2-[2-(1H-Imidazol-4-yl)-ethylcarbamoyl]-2-methyl-propionyl}-N^ε36-(2-{2-[2-(17-carboxyheptadecanoylamino)ethoxy]ethoxy}acetyl) (Glu^30,Lys^36)GLP-1(9-37) Glu^38-peptide amide”, the results for the IC50 with human GLP-1 receptor [1] and in the assay with human GLP-1 receptor [5] were less than 0.04 µM and less than 0.9 µM, respectively. The ratio [(IC50/nM) high HSA]/[(IC50/nM) low HSA] in assay [3] is greater than 10. The same substance came in with an EC50 of cAMP formation (AlphaScreen cAMP assay) in the assay with human GLP-1 receptor [4] of less than 0.0021 µM.

As for “N^9-{2-[2-(1H-Imidazol-4-yl)-ethylcarbamoyl]-2-methyl-propionyl}N^ε26-[2-(2-{2-[2-(2-{2-[(S)-4-Carboxy-4-(17-carboxyheptadecanoylamino)butyrylamino]ethoxy}ethoxy)acetylamino]ethoxy}ethoxy)acetyl][Arg^34]GLP-1(9-37)-peptide”, the IC50 in the assay with human GLP-1 receptor [1] is less than 0.04 µM; with human GLP-1 receptor [5], less than 0.9 µM. Besides, in assay [3], the ratio [(IC50/nM) high HSA]/[(IC50/nM) low HSA] is greater than 10. Moreover, the EC50 of cAMP formation (AlphaScreen cAMP assay) in the assay with human GLP-1 receptor [4] is less than 0.0021 µM.

Take “N^9-{2-[2-(1H-Imidazol-4-yl)-ethylcarbamoyl]-2-methyl-propionyl}N^ε26-{2-[2-(2-{2-[2-(2-{(S)-4-Carboxy-4-[10-(4-carboxy-phenoxy)-decanoylamino]-butyrylamino}-ethoxy)-ethoxy]-acetylamino}-ethoxy)-ethoxy]-acetyl}, N^ε37-{2-[2-(2-{2-[2-(2-{(S)-4-Carboxy-4-[10-(4-carboxy-phenoxy)-decanoylamino]-butyrylamino}-ethoxy)-ethoxy]-acetylamino}-ethoxy)-ethoxy]-acetyl}[Arg^34,Lys^37]GLP-1(9-37)Glu^38-peptide”: the IC50 with human GLP-1 receptor [1] was less than 0.04 µM; in the assay with human GLP-1 receptor [5], less than 0.9 µM. Also, in assay [3], the ratio [(IC50/nM) high HSA]/[(IC50/nM) low HSA] is greater than 10. The substance further yielded an EC50 of cAMP formation (AlphaScreen cAMP assay) in the assay with human GLP-1 receptor [4] of less than 0.0021 µM.

On to “N^9-{2-[2-(1H-Imidazol-4-yl)-propylcarbamoyl]-2-methyl-propionyl}-N^ε36-(2-{2-[2-(17-carboxyheptadecanoylamino)ethoxy]ethoxy}acetyl) [Glu^30,Lys^36]GLP-1(9-37)Glu^38-peptide amide”, for which the IC50 in the assay with human GLP-1 receptor [1] is less than 0.04 µM; with human GLP-1 receptor [5], less than 0.9 µM. In addition, in assay [3], the ratio [(IC50/nM) high HSA]/[(IC50/nM) low HSA] was greater than 10. The EC50 of cAMP formation (AlphaScreen cAMP assay) in the assay with human GLP-1 receptor [4] is less than 0.0021 µM.

As for “N^9-{2-[2-(1H-Imidazol-4-yl)methylcarbamoyl]-2-methyl-propionyl}-N^ε36-(2-{2-[2-(17-carboxyheptadecanoylamino)ethoxy}ethoxy]acetyl)[Glu^30,Lys^36]GLP-1(9-37) Glu^38-peptide amide”, the IC50 with human GLP-1 receptor [1] is less than 0.04 µM; with human GLP-1 receptor [5], less than 0.9 µM. The ratio [(IC50/nM) high HSA]/[(IC50/nM) low HSA] in assay [3] is greater than 10. The substance further gave an EC50 of cAMP formation (AlphaScreen cAMP assay) with human GLP-1 receptor [4] of less than 0.0021 µM.
